The source of these data is article doi:10.1101/2025.03.21.644603, “Oligomerization enables the selective targeting of intrinsically disordered regions by small molecules” (bioRxiv, 2025).

The chains are these.
B1: activation domain of the glucocorticoid receptor (GR) (domain or fragment, UniProt P04150 1-420, looked up)
chain: MDSKESLTPGREENPSSVLAQERGDVMDFYKTLRGGATVKVSASSPSLAVASQSDSKQRRLLVDFPKGSVSNAQQPDLSKAVSLSMGLYMGETETKVMGNDLGFPQQGQISLSSGETDLKLLEESIANLNRSTSVPENPKSSASTAVSAAPTEKEFPKTHSDVSSEQQHLKGQTGTNGGNVKLYTTDQSTFDILQDLEFSSGSPGKETNESPWRSDLLIDENCLLSPLAGEDDSFLLEGNSNEDCKPLILPDTKPKIKDNGDLVLSSPSNVTLPQVKTEKEDFIELCTPGVIKQEKLGTVYCQASFPGANIIGNKMSAISVHGVSTSGGQMYHYDMNTASLSQQQDQKPIFNVIPPIPVGSENWNRCQGSGDDNLTSLGTLNFPGRTVFSNGYSSPSMRPDVSSPPSSSSTATTGPPPKL
notes: also called GR AD; GR (1-420 aa); source: E. coli Rosetta (DE3), pDEST17, purified (inclusion bodies in urea, HisTrap, tag cleavage, SEC); not shown: His-tag, N-terminal, cleaved
B2: activation domain of the estrogen receptor alpha (ERɑ) (domain or fragment, UniProt P03372 1-184, looked up)
chain: MTMTLHTKASGMALLHQIQGNELEPLNRPQLKIPLERPLGEVYLDSSKPAVYNYPEGAAYEFNAAAAANAQVYGQTGLPYGPGSEAAAFGSNGLGGFPPLNSVSPSPLMLLHPPPQLSPFLQPHGQQVPYYLENEPSGYTVREAGPPAFYRPNSDNRRQGGRERLASTNDKGSMAMESAKETRY
notes: also called ERɑ AD; ERɑ (1-184 aa); source: E. coli Rosetta (DE3), pDEST17, purified (inclusion bodies in urea, HisTrap, tag cleavage, SEC); not shown: His-tag, N-terminal, cleaved
B3: activation domain of the mineralocorticoid receptor (MR) (domain or fragment, UniProt P08235 1-602, looked up)
chain: METKGYHSLPEGLDMERRWGQVSQAVERSSLGPTERTDENNYMEIVNVSCVSGAIPNNSTQGSSKEKQELLPCLQQDNNRPGILTSDIKTELESKELSATVAESMGLYMDSVRDADYSYEQQNQQGSMSPAKIYQNVEQLVKFYKGNGHRPSTLSCVNTPLRSFMSDSGSSVNGGVMRAVVKSPIMCHEKSPSVCSPLNMTSSVCSPAGINSVSSTTASFGSFPVHSPITQGTPLTCSPNVENRGSRSHSPAHASNVGSPLSSPLSSMKSSISSPPSHCSVKSPVSSPNNVTLRSSVSSPANINNSRCSVSSPSNTNNRSTLSSPAASTVGSICSPVNNAFSYTASGTSAGSSTLRDVVPSPDTQEKGAQEVPFPKTEEVESAISNGVTGQLNIVQYIKPEPDGAFSSSCLGGNSKINSDSSFSVPIKQESTKHSCSGTSFKGNPTVNPFPFMDGSYFSFMDDKDYYSLSGILGPPVPGFDGNCEGSGFPVGIKQEPDDGSYYPEASIPSSAIVGVNSGGQSFHYRIGAQGTISLSRSARDQSFQHLSSFPPVNTLVESWKSHGDLSSRRSDGYPVLEYIPENVSSSTLRSVSTGSSRPSKI
notes: also called MR AD; MR (1-602 aa); source: E. coli Rosetta (DE3), pDEST17, purified (inclusion bodies in urea, HisTrap, tag cleavage, SEC); not shown: His-tag, N-terminal, cleaved
B4: activation domain of the progesterone receptor (PR) (domain or fragment, UniProt P06401 1-566, looked up)
chain: MTELKAKGPRAPHVAGGPPSPEVGSPLLCRPAAGPFPGSQTSDTLPEVSAIPISLDGLLFPRPCQGQDPSDEKTQDQQSLSDVEGAYSRAEATRGAGGSSSSPPEKDSGLLDSVLDTLLAPSGPGQSQPSPPACEVTSSWCLFGPELPEDPPAAPATQRVLSPLMSRSGCKVGDSSGTAAAHKVLPRGLSPARQLLLPASESPHWSGAPVKPSPQAAAVEVEEEDGSESEESAGPLLKGKPRALGGAAAGGGAAAVPPGAAAGGVALVPKEDSRFSAPRVALVEQDAPMAPGRSPLATTVMDFIHVPILPLNHALLAARTRQLLEDESYDGGAGAASAFAPPRSSPCASSTPVAVGDFPDCAYPPDAEPKDDAYPLYSDFQPPALKIKEEEEGAEASARSPRSYLVAGANPAAFPDFPLGPPPPLPPRATPSRPGEAAVTAAPASASVSSASSSGSTLECILYKAEGAPPQQGPFAPPPCKAPGASGCLLPRDGLPSTSASAAAAGAAPALYPALGLNGLPQLGYQAAVLKEGLPQVYPPYLNYLRPDSEASQSPQYSFESLPQKI
notes: also called PR AD; PR (1-566 aa); source: E. coli Rosetta (DE3), pDEST17, purified (inclusion bodies in urea, HisTrap, tag cleavage, SEC); not shown: His-tag, N-terminal, cleaved

The data set concerns the molecule itself. The data set can be described thus: dynamic light scattering; one purified protein in solution; NR ADs at 2 mg/mL (AR AD also 35 µM), Tau-5* at 200 to 500 µM; 5 °C; 20 mM sodium phosphate pH 7.4, 1 mM TCEP, 0.5% DMSO-d6; percent of monomer against higher-order species; also with increasing EPI-001.
Take B1: the binding result is given as “binds”.
Under B2 stands “binds”; under B3, “binds”.
In the case of B4, the binding result is given as “binds”.
